Measured values taken from US20260347474 (published 2026).
Where a chain is given by its changes, count along the chain named.

Biological target: human PD1-6His (human)
Test: ELISA

human PD1-6His (human), sequence (chain, as listed by the source): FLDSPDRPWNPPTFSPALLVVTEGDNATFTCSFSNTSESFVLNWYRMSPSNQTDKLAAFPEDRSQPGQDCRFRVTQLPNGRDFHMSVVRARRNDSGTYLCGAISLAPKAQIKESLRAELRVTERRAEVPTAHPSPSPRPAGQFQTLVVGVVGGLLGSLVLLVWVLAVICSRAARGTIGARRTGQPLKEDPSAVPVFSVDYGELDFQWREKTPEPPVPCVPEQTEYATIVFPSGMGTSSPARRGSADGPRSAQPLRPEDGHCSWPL

B1: P-1153 (antibody, V domains shown)
VH: QVQLVQSGVEVKKPGASVKVSCKASGYTFTNYYMYWVRQAPGQGLEWMGGINPSNGGTNYAQKFQGRVTLTTDSSTTTAYMELKSLQFDDTAVYYCARRDYRFDMGFDYWGQGTTVTVSS
VL: EIVLTQSPATLSLSPGERATLSCRASQGVSTSGYSYLAWYQQKPGQAPRLLIYLASYRASGVPARFSGSGSGTDFTLTISSLEPEDFAVYYCQHSRDLPLTFGGGTKVEIKR
- EC50: 0.11 nM

B2: P-1148 (antibody, V domains shown)
VH: B1 VH with Y60F
VL: B1 VL with A38H
- EC50: 0.093 nM

B3: P-1151 (antibody, V domains shown)
VH: B1 VH
VL: B1 VL with A38H
- EC50: 0.065 nM

B4: P-1150 (antibody, V domains shown)
VH: B1 VH with Y60F
VL: B1 VL
- EC50: 0.088 nM
